According to the DeepSol protein solubility set:

Experiment: soluble on expression in E. coli; label from the status in PepcDB or PDB records

Sequence | soluble on expression in E. coli
MGSDKIHHHHHHMNSEASENRPAHSATGTLWSWHGGNGALIWQLMFSSDAVMGIKRFPQERKAAFFCLESSTGRVLRDDFVLTAGDENETPVGDGWMIGLETVHGSRLVCHTYQPGSPEHLGIWAINLPEARVVWSRPDLTFTANLGDAFLAYRSIVFAGFPERDYVLIDPLSGCELEHLGTAHERPNQLRDAAQSEEERQRILLPDTVFDEAGHVENINHGATSVTVFHRMEPVAEGVPGWVSTLSVSECERLVHEDVMASGEPMPVFNSFLIKDDRLYYIREREFLVSFVVS | not soluble
MDFKQRHTWLKIASCKSISAKKRASIWQKLTEFDQYEMTTQTFAESFFPVDKLAQILMELETAEACFFDDVTLIWILDDAYPALLREIYEAPPILFCKGNIDLLQQQAIAIVGTRQMSEYGRKACMKIASELAENKLTIVSGMAIGIDSTAHRATLNKQGATIAVLGSGVNKVYPKKNELLAKEIVKEGLLLSEYLPDEEAKRWHFPERNRIISGLAIGTVIIEAAERSGSLITADIALEQNRQVFAVPGNIFIDTWQGTNYLIQEGAKLVMNSNNIIEEFIQIKP | not soluble
VKLTEKQKAFCDYYIETLNATESYKKAGYKVKTDGAARVNASRLLTNANVRKYIEERMKQKESERIASQDEVLEFLTRVMRGQEVEEVVGFTEYGAVKEKKTPSARDRVKAAELLGKRYALFTEKVNVEGNMGVAIIDDIKEDDSDDAS | soluble
MKVTQLSSETLDRAHERFEETLAQMTVAEANTMPAPLIKSVTWLMWHTARELDLQISALNHSDPLWLSQHWTEKFALDLPDETEDWHHTPEEAAKVVVAEKQLLSDYLAASVALTKSYLDQIKEEQLSDVIDKNWTPPVTRQVRLVSAIDDAVMHSGQAVYTRRLVIGK | soluble
MHYDVIVIGGGPSGLMAAIGAAEEGANVLLLDKGNKLGRKLAISGGGRCNVTNRLPLDEIVKHIPGNGRFLYSAFSIFNNEDIITFFENLGVKLKEEDPGRMFPVSNKAQSVVDALLTRLKDLGVKIRTNTPVETIEYENGQTKAVILQTGEVLETNHVVIAVGGKSVPQTGSTGDGYAWAEKAGHTITELFPTEVPILSNEPFIRDRSLQGLALRDINLSVLNPKGKAIISHKMDMLFTHFGLSGPAALRCSQFVVKALKKFKTNTIQMSIDALPEENSEQLFQRMLKQMKEDPKKGIKNVLKGYVPERYFLFLLEKNEIDGSEQAGQVSHEKIRALVKDFKEFTVNVNGTQSIEKAFVTGGGVSVKEINPKEMSSKFTNGLYFCGEVLDIHGYTGGYNITSALVTGRIAGTTAGENAKMQY | soluble
MSLEKESEWKGPFYFILGADPQFGLIKAWSTGDCDNGGDEWEQEIRLTEQAVQAINELNPKPKFFVLCGDLIHAMPGKPWRTEQTEDLKRVLRAVDRAIPLVLVSGNHDIGNTPTAETVEEFCRTWGDDYFSFWVGGVLFLVLNSQFYENPSKCPSLKQAQDQWLDEQLSIARQRHCQHAIVFQHIPLFLESIDEDDDYYFNLSKSTRKELADKFIHAGVRVVFSGHYHRNAGGTYQNLDMVVSSAIGCQLGRDPHGLRVVVVTAEKIVHRYYSLDELSEKGIEDDLMDLEGHHHHHH | not soluble
GSHMTYPKYLLSPETIEALRKPTFDVWLWEPNEMLSCLEHMYHDLGLVRDFSINPVTLRRWLFCVHDNYRNNPFHNFRHCFCVAQMMYSMVWLCSLQEKFSQTDILILMTAAICHDLDHPGYNNTYQINARTELAVRYNDISPLENHHCAVAFQILAEPECNIFSNIPPDGFKQIRQGMITLILATDMARHAEIMDSFKEKMENFDYSNEEHMTLLKMILIKCCDISNEVRPMEVAEPWVDCLLEEYFMQSDREKSEGLPVAPFMDRDKVTKATAQIGFIKFVLIPMFETVTKLFPMVEEIMLQPLWESRDRYEELKRIDDAMKELQKK | soluble
MAHHHHHHMVQLTINNARGVTLCRVSLPANATVQQLLLQLTVAKPELRQAQAIRNDVRHVTHRLTPASTTTTTTTSVVSSNAQTLLQAGLVGQGATAETLVVLMAADAPAAASSAAAAAPSPTKAVAAQILDLFGCASASPSAGVRSQASVVPSTMDERQLELQRRIYAQIQQQQIDENLANALEYTPEAFAKVTMLYVPCTINQVLVKAFVDSGAQNSIMNKRTAERCGLMRLVDVRMRGVAVGVGRQEICGRIHMTPVNLAGMYIPFAFYVIEDQAMDLIIGLDQLKRHQMMIDLKHNCLTIDNINVPFLPENDLPALAALGDDENAMHAPRHQDPATTATTASNPAAPVLSEGERQARIEGFMTVSGITDPTQAAELLEAADWNPNVAAALLFDT | soluble
DFFRSAIDQAPSFMAVLDGRDHIFRIVNQAYHQLVGRRDLLNRTVREALPELDGQGFFELLDEVFLTGLAFTRLAAPVLLRRGPEIERSFVDFIMCPLRGPDGQVRGVFVEGHDVT | not soluble
MAHHHHHHMQTNYNEIRNLFNYYIREYFYQKSKGSYFVHFKKPGILFMSLKCYKRKKMYYPCIYDWYFDNLNNVKKNKDIFQYKNEYNTKNIYSHKICTEKENLGKNNSYVETDNIYLNKSEENLQNIYKSSNLYYNINPIYLSKICLYNLNEYHILYSNNYYDAFTQYYYSLISYKMDVHNMKIFPNLKILISHIKNISNIINDEVIKNAYIYLIKQRNIMNEEYLKNVFRNIYTTMLHNSSLYLFVDNHDQFIMILKIIKTDDIKSMFESAIPYPYYLIVDENINIYNLQSFNIYINSILNQRMQYNYPYNEKEKGSILNHYNNDKMYMTYNNNINQSKDIKIEKQTEQNEKGFNSMLDTDKGVYEKNIIKDKNDKVYFFKFIKIFDMKPNYRFKQKK | not soluble
MWAFRTARIGSLLAATSVILRRCLRLGVAMAKSKFEYVRNFEVQDTCLPHCWVVVRLDGRNFHRFAEEHNFAKPNDSRALHLMTKCAQTVMEELEDIVIAYGQSDEYSFVFRKKSNWFKRRASKFMTLVASQFASSYVFYWRDYFEDQPLRYPPGFDGRVVLYPSNQTLKDYLSWRQADCHINNLYNTVFWALIQQSGLTPVQAQQRLKGTLTADKNEILFSEFHINYNNEPHMYRKGTVLVWQKVEEVRTQEVRLPAEMEGEKKAVARTRTRVVALNCDLIGDAFWKEHPEILAEEN | soluble
MGSDKIHHHHHHKQEPISKSGVPVINLSEDVSTVPSLLLSEAAEKLEIVPLEMTDESVLSDITEMQVTDHNIWIDHGREFYIYRFSRTGKFLNKIGSIGQGPGEYTTYSTFLVDEDKKEVYIIANTNGVLAYDFEGNFKRKIIDIQMILQLFSSPYDQYILNNQKFFATQNFGLYRPIDKDSLWSFVSLGDDFQKKKYFKNPAHVGREEQIIANRANMDRMVNYWREYLTSMDTYNAQLTLKYPDTDTIYCYDDATNQLSPQYAIFTDEEKGDYEATHLWFKDRKAFDYFSIFSYYPTKDFIYLVGSKGEEVYTYCYNKKDGSVRLQKRQSTITERDVPWFSFPLRQMKRDFVLDNDLGGGDFTVDSRSSGKYWIDILEPGGDENWIDIDQIKSSTVIDESKKKELIRVLESATEDSNPILMIATLK | not soluble
MSLEAGAGAPLARYAAWRRAGDFIFLSGIIPVNPLTGTIVNGFQDVPEPVRELLGATGEFSTDAKQGPILAQSWYVLESIRRTVASAGGQMSDVIKLVQYFRNLDHFPYYSRVRKLFYPDQPPVSTVVQVSEMLPDATVLIEVEATVWLPPSFNSEAEGHHHHHH | soluble
MRYIAGIDIGNSSTEVALATLDEAGALTITHSALAETTGIKGTLRNVFGIQEALALVARGAGIAVSDISLIRINEATPVIGDVAMETITETIITESTMIGHNPKTPGGAGLGTGITITPQELLTRPADAPYILVVSSAFDFADIASVINASLRAGYQITGVILQRDDGVLVSNRLEKPLPIVDEVLYIDRIPLGMLAAIEVAVPGKVIETLSNPYGIATVFNLSPEETKNIVPMARALIGNRSAVVVKTPSGDVKARAIPAGNLELLAQGRSVRVDVAAGAEAIMKAVDGCGRLDNVTGESGTNIGGMLEHVRQTMAELTNKPSSEIFIQDLLAVDTSVPVSVTGGLAGEFSLEQAVGIASMVKSDRLQMAMIAREIEQKLNIDVQIGGAEAEAAILGALTTPGTTRPLAILDLGAGSTDASIINPKGDIIATHLAGAGDMVTMIIARELGLEDRYLAEEIKKYPLAKVESLFHLRHEDGSVQFFSTPLPPAVFARVCVVKADELVPLPGDLALEKVRAIRRSAKERVFVTNALRALRQVSPTGNIRDIPFVVLVGGSSLDFEVPQLVTDALAHYRLVAGRGNIRGSEGPRNAVATGLILSWHKEFAHER | soluble
MNLLFQSYLDNVGVQIVRQMRSGERFLKIWSQTVEEIVSYVTVNF | soluble
MSLARQNYHSEVEAAVNKQINIELYASYVYLSMSFYFDRDDVALPNIAKFFKEQSDEEREHATELMRVQNLRGGRVVLQDIQKPENDEWGTALKAFEAALALEKFNNESLLKLHSTAGNHNDAHLTDFIEEKYLDEQVKSINEFARMVANLKRVGPGVGEYVFDKEHFSD | soluble
MAHHHHHHMLRRLGAGTNGQVRRSASSVSYGYLNLTVSDKIMPYVEGLKKKVIYVSSSKDCKAYVQEIQKGVQAGKINCIGLDVEGYKIGRNGTVSIIQVCTQDVYLFDLYKCDNSYLFVKCLKELLEDRRVIKITHDCREDCSILFNQYSICLNRTFDTQVAFNLLLKETKKDLYQISYDDLLYKCLLLNNKHKIYFHKMISLDQKIYLKRPIAKELIQYAIQDVIYLKPLMWSLVDRLLRVCKDGEAGREPFGEDGEARSNPFGEDGEARSNPFGEENPRSIKNGDDVMSEGAHSNLSEHKTNIIKRVTRLSERYINYQFLNTHVKNEKELQKGMTLDGMVVSCNNLNLYVKLNLSRRGVITNCMRNDFEIGDVVKCVILGFCNNDYIKLGLCDPSLCAVKREEGR | not soluble
MHHVYVIECSDGTYYTGYTTDVQRRVAEHNAGDGAKYTRGRTPVTLRHTESFDSKSEAMRREYRIKQLSRAQKEALFLEHHHHHH | soluble
AIAVQKLENIPALVHLKEKNIISIRVFLQGRSIVGIQLNYNDNEDGQVYGSTAGKEMVARLSKEEHIIGVEGTYNPSALTQIIFTTNQPRQLMVGYHVGNYQYSSYPDDPSLVLKGACVSWRAGGIKSILFLWGSENSSCVKYGHSG | soluble
MSLDGQEAAGILERARASVDPELRRAVDSLPGSMRRIALHHFGWEHADGTPAAGNAGKAIRPALVLAAVRALGGPQSSAVRAAAAVELIHNFTLLHDDVMDRDTTRRHRPTAWTVFGDADAILAGDALQALAHRLLAEDPHPASAAAAARLAACVIELCAGQHADTAMERRGPGEVTLDECLAMAEAKTGALLGCACALGALYAGAEEEDVEALDAFGREAGLAFQLIDDVIGIWGDPSRTGKPAGADLMARKKSLPVVAALAAGTPAAAELAELYAVPHQEGELERTVLAVERAGGRDWAQQQAADRMARAMHELSRAIPDPEAAGGLLALAEFVTRRSNEGHHHHHH | soluble
MGSDKIHHHHHHMAYADKKLYTDAGFTLERGEHLGIVGQNGAGKSTLIKILTGKVLPIAGRVEWKKKIQIGYLDQYADIPSGMSLIDFLHTAYSDLYDKEKKMTDLYSKYAELVDDKLLERATRFQNELDAADFYSIDNNVEQVITGLGLDSIGRDHIISEMSGGQRAKIILAKLLLEGNDVIILDEPTNYLDVSHIKWLEGYLQNYDGAALIISHDFDFLNNVANVILDVSFNTLTKYRGNFDQAMRQKTEKTEQQLRAYNKQQEVIKKTKTFIQKNKARASTTGRAKSREKMLAHMDIIEPPQTNPKATFKFPYIESQSTDALKAERLVVGYDPKKPVLNPITFSMSSGDKIVFTGFNGAGKSTLIKTLLGILPAISGKSKFSPSAKTNYFDQDLIWDDDKKTPLQIMQAAYPLEEQKQLRQRLGAAGINADNATKQMCLLSGGEQTKVKLALMELTPSNFLILDEPTNHLDEATKNSLKKAIQKFDGSLILVTHERSFYEGWIDKVIDIASMSNMQPGEVEE | not soluble
